Results published in patent US20260150817A1 (LEVERAGEN, published 2026).
Read-outs that look alike come from different tables or passages of the source.

Experiments:
[1] = target: T1, Spike protein of the COVID-19 Spike-ACE2 Binding Assay Kit (Raybiotech) (SARS-CoV-2, UniProt P0DTC2 319-541)
[2] = target: T1, Spike protein of the COVID-19 …; remark: listed apart in the source

| Binder | IC50 [1] | IC50 [2] |
| --- | --- | --- |
| M320_5 Nb-Fc (Fc fusion, also called LVGN-S3205) EVQLQQSGPELVKPGASVKMSCKASGYTFTDYYIKWEKQSHGKSLEWIGDINPKNGETFYNQQFKGKATLTVDKSSSTAYMQLNSLTSEDSAVYYCARKEYGDYGYAVDYWGQGTSVTVSS | 0.397 nM | 0.4 nM |
| M2S320_377 Nb-Fc (Fc fusion, also called LVGN-S320377) EVQLQQSGPELVKPGASVKMSCKASGYTFTDYYVKWKKQSHGKSLEWIGDINPNNGDTFYNQKFKDKATLTVDKSSSTAYMQLNSLTSEDSAVYYCARKEYGNFGYAVDYWGQGTSVTVSS | – | 1.6 nM |
| M2S320_75 Nb-Fc (Fc fusion, also called LVGN-S32075) EVQLQQSGPELVKPGASVKMSCKASGYTFTDYYMKWLKQNHGKSLEWIGDINPNNGDTFYNQKFKGKATLTVDTSSSTAYMQLNSLTSEDSAVYYCARKEYGDYGYATDYWGQGTSVTVSS | – | 0.12 nM |
| M2S521_623 Nb-Fc (Fc fusion, also called LVGN-S521623) EVQLQQSGPELVKPGASVKISCKASGYTFTDYYMKWEKQSHGKSLEWIGDINPNNGGTRYNQKFRGKATLTVDKSSSTAYMELRSLTSEDSAVYYCARLEDDYYGYAVDYWGQGTSVTVSS | – | 0.13 nM |
| MS521_35 Nb-Fc (Fc fusion, also called LVGN-S52135) EVQLQQSGPELVKPGASVKISCKASGYTFTDYYMKWVKQRHGQSLEWIGNINPTNGDTNYSQNFKGKATLTVDKSSTTAYMELRSLTSEDSAVYYCARLEDGYYGYAVDYWGQGTSVTVSS | 0.489 nM | 0.49 nM |
| M2S521_193 Nb-Fc (Fc fusion, also called LVGN-S521193) EVQLQQSGPELVKPGASVKISCKASGYTFTDYYMKWVKQSHGKSLEWIGDINPNNGGARYNQKFKGRATLTVDKSSSTAYMELRSLTSEDSAVYYCSRLEDGYYGYAVDYWGQGTSVTVSS | – | 0.16 nM |
| M2S521_72 Nb-Fc (Fc fusion, also called LVGN-S52172) EVQLQQSGPELVKPGASVKISCKASGYTFTDYYMKWAKQSHGKSLEWIGHINPVNGDTSYNQKFKGKATLTVDKSSSTVYMELRSLTSEDSAVYYCARLEDGYYGYTMDYWGQGTSVTVSS | – | 0.041 nM |
| M2S521_378 Nb-Fc (Fc fusion, also called LVGN-S521378) EVQLQQSGPELVKPGASVKISCKASGYTFTDYYMKWVKQSHGKSLEWIGDINPKNGGTNYNQKFKDKATLTVDKSSSTAYMELRSLTSEDSAVYYCARLEDGYYGYAIDYWSQGTSVTVSS | – | 2.2 nM |
